The test system of this data set is Escherichia coli TOP10. Kind of data set: shrunken log2 fold change of peptide-encoding DNA abundance (4.5 h post-induction vs induction); higher = less antimicrobial activity (less host growth inhibition). The conditions noted are these: time post-induction: 4.5 h; library: site-saturation at positions 5, 18, 19, 20.
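Note: peptides expressed intracellularly from a pBAD plasmid library in pooled LB shake-flask culture, induced with 0.3% L-arabinose, DNA abundance read by NGS, three biological replicates, DESeq2 with apeglm shrinkage.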

Regarding RRIRYRPPRLPRPRPRPPGQPRP, the “shrunken log2 fold change” value was found to be 0.0011.

In the case of RRIRGRPPRLPRPRPRPHHAPRP, the “shrunken log2 fold change” value was 0.254.

For RRIRMRPPRLPRPRPRPLGWPRP, the “shrunken log2 fold change” value came to 1.32.

In the case of RRIRRRPPRLPRPRPRPYWRPRP, the “shrunken log2 fold change” value is 0.0363.

Turning to RRIRRRPPRLPRPRPRPHIIPRP, the “shrunken log2 fold change” value was -0.259.

In the case of RRIRMRPPRLPRPRPRPWAGPRP, the “shrunken log2 fold change” value was found to be 0.235.

For RRIRHRPPRLPRPRPRPPLTPRP, the “shrunken log2 fold change” value was 0.162.

Consider RRIRHRPPRLPRPRPRPGQFPRP, for which the “shrunken log2 fold change” value is -0.0207.

On to RRIRSRPPRLPRPRPRPYSEPRP, for which the “shrunken log2 fold change” value was -0.561.

Consider RRIRARPPRLPRPRPRPFQVPRP, for which the “shrunken log2 fold change” value is 0.0694.

For the sequence RRIRARPPRLPRPRPRPMPAPRP, the “shrunken log2 fold change” value is 0.722.

Turning to RRIRCRPPRLPRPRPRPACNPRP, the “shrunken log2 fold change” value was -0.0286.

Consider RRIRQRPPRLPRPRPRPTCWPRP, for which the “shrunken log2 fold change” value was determined as 0.0954.

RRIRWRPPRLPRPRPRPRFLPRP: the “shrunken log2 fold change” value was determined as 0.0174.

As to RRIRTRPPRLPRPRPRPWMQPRP, the “shrunken log2 fold change” value is -0.0757.

Regarding RRIRARPPRLPRPRPRPLGQPRP, the “shrunken log2 fold change” value was determined as 0.432.

For RRIRCRPPRLPRPRPRPIFVPRP, the “shrunken log2 fold change” value is -0.284.

As to RRIRRRPPRLPRPRPRPTREPRP, the “shrunken log2 fold change” value came to 0.892.

As for RRIRGRPPRLPRPRPRPDPGPRP, the “shrunken log2 fold change” value was found to be 0.616.

With RRIRLRPPRLPRPRPRPQCGPRP, the “shrunken log2 fold change” value was 0.0192.

On to RRIRFRPPRLPRPRPRPFMFPRP, for which the “shrunken log2 fold change” value is -0.739.

As to RRIRVRPPRLPRPRPRPWNFPRP, the “shrunken log2 fold change” value was -0.102.

In the case of RRIRGRPPRLPRPRPRPLLYPRP, the “shrunken log2 fold change” value is 0.473.

Regarding RRIRDRPPRLPRPRPRPSFPPRP, the “shrunken log2 fold change” value was -0.362.

On to RRIRNRPPRLPRPRPRPIYGPRP, for which the “shrunken log2 fold change” value is -0.224.

As for RRIRQRPPRLPRPRPRPTQYPRP, the “shrunken log2 fold change” value was -0.0342.

Regarding RRIRIRPPRLPRPRPRPYNMPRP, the “shrunken log2 fold change” value is -1.39.

With RRIRQRPPRLPRPRPRPNDRPRP, the “shrunken log2 fold change” value is -0.16.

In the case of RRIRARPPRLPRPRPRPRWQPRP, the “shrunken log2 fold change” value was 0.361.

Regarding RRIRDRPPRLPRPRPRPYVTPRP, the “shrunken log2 fold change” value is -0.131.

Take RRIRYRPPRLPRPRPRPKLPPRP: the “shrunken log2 fold change” value was 0.108.

In the case of RRIRSRPPRLPRPRPRPQWDPRP, the “shrunken log2 fold change” value is -0.235.

For the sequence RRIRIRPPRLPRPRPRPVLRPRP, the “shrunken log2 fold change” value is -0.0796.

RRIRWRPPRLPRPRPRPTALPRP: the “shrunken log2 fold change” value was found to be 0.257.

For the sequence RRIRLRPPRLPRPRPRPSLPPRP, the “shrunken log2 fold change” value is -0.0357.

RRIRRRPPRLPRPRPRPWLAPRP: the “shrunken log2 fold change” value was 0.35.

Take RRIRWRPPRLPRPRPRPLWAPRP: the “shrunken log2 fold change” value was 0.417.

For RRIRARPPRLPRPRPRPYMAPRP, the “shrunken log2 fold change” value was -0.702.

Regarding RRIRDRPPRLPRPRPRPMICPRP, the “shrunken log2 fold change” value was -0.0307.

In the case of RRIRERPPRLPRPRPRPCIWPRP, the “shrunken log2 fold change” value is -0.0915.

Take RRIRERPPRLPRPRPRPTPSPRP: the “shrunken log2 fold change” value stood at 0.14.

As for RRIRRRPPRLPRPRPRPHWEPRP, the “shrunken log2 fold change” value stood at 0.127.

RRIRERPPRLPRPRPRPEHIPRP: the “shrunken log2 fold change” value is -0.594.

Consider RRIRIRPPRLPRPRPRPIGNPRP, for which the “shrunken log2 fold change” value is -0.104.

Regarding RRIRHRPPRLPRPRPRPRTLPRP, the “shrunken log2 fold change” value is -0.137.

For RRIRVRPPRLPRPRPRPRTCPRP, the “shrunken log2 fold change” value was -0.143.

As for RRIRARPPRLPRPRPRPSAQPRP, the “shrunken log2 fold change” value was 0.96.

Turning to RRIRSRPPRLPRPRPRPHMIPRP, the “shrunken log2 fold change” value is -0.961.

In the case of RRIRGRPPRLPRPRPRPPGCPRP, the “shrunken log2 fold change” value worked out at 0.895.

Take RRIRVRPPRLPRPRPRPRMHPRP: the “shrunken log2 fold change” value came to 0.151.

With RRIRARPPRLPRPRPRPKWTPRP, the “shrunken log2 fold change” value is -0.00127.

With RRIRARPPRLPRPRPRPGMKPRP, the “shrunken log2 fold change” value worked out at 0.186.

For the sequence RRIRPRPPRLPRPRPRPPEGPRP, the “shrunken log2 fold change” value is 0.436.

For the sequence RRIRDRPPRLPRPRPRPHCWPRP, the “shrunken log2 fold change” value worked out at 0.15.

As to RRIRVRPPRLPRPRPRPYIWPRP, the “shrunken log2 fold change” value was -0.504.

For RRIRIRPPRLPRPRPRPNCAPRP, the “shrunken log2 fold change” value was -0.187.

For the sequence RRIRKRPPRLPRPRPRPHKFPRP, the “shrunken log2 fold change” value came to 0.0822.

For the sequence RRIRYRPPRLPRPRPRPTIWPRP, the “shrunken log2 fold change” value was -0.196.

Take RRIRERPPRLPRPRPRPCHHPRP: the “shrunken log2 fold change” value was -0.209.

RRIRKRPPRLPRPRPRPKRNPRP: the “shrunken log2 fold change” value worked out at 0.689.

With RRIRWRPPRLPRPRPRPFEYPRP, the “shrunken log2 fold change” value is -0.331.

For RRIRTRPPRLPRPRPRPCSHPRP, the “shrunken log2 fold change” value came out at 0.13.

In the case of RRIRCRPPRLPRPRPRPRANPRP, the “shrunken log2 fold change” value is 0.255.

Turning to RRIRRRPPRLPRPRPRPWFFPRP, the “shrunken log2 fold change” value came to 0.08.

In the case of RRIRERPPRLPRPRPRPHHEPRP, the “shrunken log2 fold change” value is -0.191.

Regarding RRIRNRPPRLPRPRPRPRVVPRP, the “shrunken log2 fold change” value came out at 0.078.

For the sequence RRIRGRPPRLPRPRPRPANTPRP, the “shrunken log2 fold change” value came out at 0.152.

For the sequence RRIRDRPPRLPRPRPRPKVIPRP, the “shrunken log2 fold change” value was -0.176.

On to RRIRNRPPRLPRPRPRPANQPRP, for which the “shrunken log2 fold change” value is 0.271.

In the case of RRIRYRPPRLPRPRPRPSTVPRP, the “shrunken log2 fold change” value is -0.0902.

On to RRIRSRPPRLPRPRPRPNYCPRP, for which the “shrunken log2 fold change” value is -0.352.

Turning to RRIRLRPPRLPRPRPRPIFAPRP, the “shrunken log2 fold change” value was 0.331.

With RRIRERPPRLPRPRPRPVRPPRP, the “shrunken log2 fold change” value came out at 0.849.

As to RRIRTRPPRLPRPRPRPLVQPRP, the “shrunken log2 fold change” value stood at 0.149.

In the case of RRIRPRPPRLPRPRPRPHTQPRP, the “shrunken log2 fold change” value is 0.0349.

In the case of RRIRGRPPRLPRPRPRPLSGPRP, the “shrunken log2 fold change” value came to 0.675.

As for RRIRKRPPRLPRPRPRPALLPRP, the “shrunken log2 fold change” value turned out to be 0.246.

For the sequence RRIRKRPPRLPRPRPRPGYSPRP, the “shrunken log2 fold change” value was -0.447.

As to RRIRGRPPRLPRPRPRPRYNPRP, the “shrunken log2 fold change” value is -0.0667.

For the sequence RRIRTRPPRLPRPRPRPFMYPRP, the “shrunken log2 fold change” value is -0.576.

Regarding RRIRNRPPRLPRPRPRPMLKPRP, the “shrunken log2 fold change” value was -0.0393.

On to RRIRIRPPRLPRPRPRPIENPRP, for which the “shrunken log2 fold change” value is -0.223.

Consider RRIRTRPPRLPRPRPRPGNHPRP, for which the “shrunken log2 fold change” value is -0.731.

RRIRARPPRLPRPRPRPFCWPRP: the “shrunken log2 fold change” value was determined as 0.401.

In the case of RRIRIRPPRLPRPRPRPYIRPRP, the “shrunken log2 fold change” value was -0.159.

With RRIRVRPPRLPRPRPRPELEPRP, the “shrunken log2 fold change” value is 0.292.

For RRIRYRPPRLPRPRPRPVCMPRP, the “shrunken log2 fold change” value is -0.314.

On to RRIRVRPPRLPRPRPRPSNEPRP, for which the “shrunken log2 fold change” value was -0.775.

RRIRLRPPRLPRPRPRPHTFPRP: the “shrunken log2 fold change” value was -0.0496.

In the case of RRIRHRPPRLPRPRPRPLSAPRP, the “shrunken log2 fold change” value was 0.242.

On to RRIRVRPPRLPRPRPRPQRHPRP, for which the “shrunken log2 fold change” value is -0.0604.

Consider RRIRLRPPRLPRPRPRPQFHPRP, for which the “shrunken log2 fold change” value was -0.414.

In the case of RRIRGRPPRLPRPRPRPGIPPRP, the “shrunken log2 fold change” value was found to be 0.351.

In the case of RRIRIRPPRLPRPRPRPPDHPRP, the “shrunken log2 fold change” value is -0.134.

Consider RRIRARPPRLPRPRPRPETPPRP, for which the “shrunken log2 fold change” value stood at 1.65.

With RRIRNRPPRLPRPRPRPVLHPRP, the “shrunken log2 fold change” value was -0.00264.

Regarding RRIRNRPPRLPRPRPRPFYRPRP, the “shrunken log2 fold change” value was -0.131.

As for RRIRGRPPRLPRPRPRPIYVPRP, the “shrunken log2 fold change” value came out at 1.23.

On to RRIRRRPPRLPRPRPRPMFQPRP, for which the “shrunken log2 fold change” value was determined as 0.155.

As to RRIRDRPPRLPRPRPRPYYKPRP, the “shrunken log2 fold change” value was -0.195.

For the sequence RRIRHRPPRLPRPRPRPSKHPRP, the “shrunken log2 fold change” value was -0.177.

Turning to RRIRRRPPRLPRPRPRPIWIPRP, the “shrunken log2 fold change” value is -0.32.

Regarding RRIRSRPPRLPRPRPRPFESPRP, the “shrunken log2 fold change” value was -0.258.

Turning to RRIRDRPPRLPRPRPRPWVGPRP, the “shrunken log2 fold change” value stood at 0.0332.

As to RRIRFRPPRLPRPRPRPEPTPRP, the “shrunken log2 fold change” value was 0.805.

For the sequence RRIRHRPPRLPRPRPRPFSKPRP, the “shrunken log2 fold change” value amounted to 0.0242.

Take RRIRIRPPRLPRPRPRPARQPRP: the “shrunken log2 fold change” value was -0.0037.

RRIRTRPPRLPRPRPRPITCPRP: the “shrunken log2 fold change” value is -0.223.

In the case of RRIRKRPPRLPRPRPRPYWQPRP, the “shrunken log2 fold change” value is -0.0316.

For RRIRKRPPRLPRPRPRPRWCPRP, the “shrunken log2 fold change” value came to 0.251.

As for RRIRSRPPRLPRPRPRPVWNPRP, the “shrunken log2 fold change” value is -0.372.

As to RRIRMRPPRLPRPRPRPEMDPRP, the “shrunken log2 fold change” value worked out at 3.88.

Regarding RRIRPRPPRLPRPRPRPVSNPRP, the “shrunken log2 fold change” value is -0.622.

RRIRPRPPRLPRPRPRPLILPRP: the “shrunken log2 fold change” value is -0.559.

As to RRIRERPPRLPRPRPRPTVRPRP, the “shrunken log2 fold change” value is -0.00266.

Consider RRIRLRPPRLPRPRPRPHRNPRP, for which the “shrunken log2 fold change” value was -0.319.

As to RRIRLRPPRLPRPRPRPPFPPRP, the “shrunken log2 fold change” value came to 0.455.

In the case of RRIRCRPPRLPRPRPRPILFPRP, the “shrunken log2 fold change” value was -0.405.

Take RRIRMRPPRLPRPRPRPAVEPRP: the “shrunken log2 fold change” value amounted to 0.741.

Regarding RRIRIRPPRLPRPRPRPGGVPRP, the “shrunken log2 fold change” value worked out at 0.0574.

RRIRLRPPRLPRPRPRPPMHPRP: the “shrunken log2 fold change” value was 0.363.

Turning to RRIRLRPPRLPRPRPRPIVPPRP, the “shrunken log2 fold change” value turned out to be 0.0358.

Consider RRIRKRPPRLPRPRPRPTSWPRP, for which the “shrunken log2 fold change” value came out at 0.6.

Consider RRIRYRPPRLPRPRPRPHCKPRP, for which the “shrunken log2 fold change” value was -0.11.

Regarding RRIRSRPPRLPRPRPRPDVSPRP, the “shrunken log2 fold change” value is -0.0357.

These data come from the supplement of paper PMC9112550, “Optimization of the antimicrobial peptide Bac7 by deep mutational scanning” (BMC Biology, 2022).
